{"source": "IntAct's records for PubMed 16004875", "parents": {"B1": {"name": "Vesicle-associated membrane protein-associated protein SCS2 (Saccharomyces cerevisiae), P40075 (parent)", "chain": "MSAVEISPDVLVYKSPLTEQSTEYASISNNSDQTIAFKVKTTAPKFYCVRPNAAVVAPGETIQVQVIFLGLTEEPAADFKCRDKFLVITLPSPYDLNGKAVADVWSDLEAEFKQQAISKKIKVKYLISPDVHPAQNQNIQENKETVEPVVQDSEPKEVPAVVNEKEVPAEPETQPPVQVKKEEVPPVVQKTVPHENEKQTSNSTPAPQNQIKEAATVPAENESSSMGIFILVALLILVLGWFYR", "partner": "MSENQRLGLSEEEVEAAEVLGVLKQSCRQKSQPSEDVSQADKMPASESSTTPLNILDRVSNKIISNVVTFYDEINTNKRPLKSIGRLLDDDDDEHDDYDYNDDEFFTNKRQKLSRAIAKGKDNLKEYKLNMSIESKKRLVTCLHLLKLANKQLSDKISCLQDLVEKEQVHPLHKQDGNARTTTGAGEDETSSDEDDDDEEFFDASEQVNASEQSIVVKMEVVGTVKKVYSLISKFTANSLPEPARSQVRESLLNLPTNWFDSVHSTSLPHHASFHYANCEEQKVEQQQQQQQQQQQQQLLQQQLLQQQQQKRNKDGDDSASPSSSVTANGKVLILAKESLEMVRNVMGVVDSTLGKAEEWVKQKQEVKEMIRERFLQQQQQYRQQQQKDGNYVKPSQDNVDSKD"}, "B2": {"name": "Vesicle-associated membrane protein-associated protein A (Rattus norvegicus (Rat)), Q9Z270 (parent)", "chain": "MASASGAMAKHEQILVLDPPSDLKFKGPFTDVVTTNLKLQNPSDRKVCFKVKTTAPRRYCVRPNSGVIDPGSIVTVSVMLQPFDYDPNEKSKHKFMVQTIFAPPNISDMEAVWKEAKPDELMDSKLRCVFEMPNENDKLNDMEPSKAVPLNASKQDGPLPKPHSVSLNDTETRKLMEECKRLQGEMMKLSEENRHLRDEGLRLRKVAHSDKPGSTSAVSFRDNVTSPLPSLLVVIAAIFIGFFLGKFIL", "partner": "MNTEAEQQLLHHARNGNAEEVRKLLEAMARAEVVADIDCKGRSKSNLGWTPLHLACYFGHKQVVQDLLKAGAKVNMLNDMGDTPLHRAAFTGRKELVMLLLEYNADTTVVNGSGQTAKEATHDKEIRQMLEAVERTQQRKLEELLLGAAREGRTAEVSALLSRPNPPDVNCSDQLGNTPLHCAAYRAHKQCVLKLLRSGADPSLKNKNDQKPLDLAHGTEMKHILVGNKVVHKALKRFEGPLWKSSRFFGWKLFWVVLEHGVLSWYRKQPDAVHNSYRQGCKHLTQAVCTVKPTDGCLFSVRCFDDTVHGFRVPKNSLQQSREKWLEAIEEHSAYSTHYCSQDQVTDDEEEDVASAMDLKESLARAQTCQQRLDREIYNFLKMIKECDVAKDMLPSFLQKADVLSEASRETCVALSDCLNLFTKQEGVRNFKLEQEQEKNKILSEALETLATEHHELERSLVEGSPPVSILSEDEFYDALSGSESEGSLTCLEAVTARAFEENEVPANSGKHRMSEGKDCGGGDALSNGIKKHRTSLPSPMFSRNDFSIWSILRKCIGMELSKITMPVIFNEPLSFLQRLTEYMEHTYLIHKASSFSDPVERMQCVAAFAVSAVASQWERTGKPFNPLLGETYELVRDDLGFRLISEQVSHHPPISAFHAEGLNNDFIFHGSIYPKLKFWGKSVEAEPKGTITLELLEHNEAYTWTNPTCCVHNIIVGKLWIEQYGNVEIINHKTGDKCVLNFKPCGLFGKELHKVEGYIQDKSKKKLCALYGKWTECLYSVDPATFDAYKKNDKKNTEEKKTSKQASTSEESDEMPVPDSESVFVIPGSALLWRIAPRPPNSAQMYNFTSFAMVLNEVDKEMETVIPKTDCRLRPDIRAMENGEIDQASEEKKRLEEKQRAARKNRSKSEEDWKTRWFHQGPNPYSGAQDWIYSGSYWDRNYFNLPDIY"}}}
{"variants_of": "B1", "conditions": "with opi1_yeast OPI1, P21957"}
{"variant": "MSAVEISPDVLVYKSPLTEQSTEYASISNNSDQTIAFKVKTTAPKFYCVRPNAAVVAPGETIQVQVIFLGLTEEPAADFKCRDDFDVITLPSPYDLNGKAVADVWSDLEAEFKQQAISKKIKVKYLISPDVHPAQNQNIQENKETVEPVVQDSEPKEVPAVVNEKEVPAEPETQPPVQVKKEEVPPVVQKTVPHENEKQTSNSTPAPQNQIKEAATVPAENESSSMGIFILVALLILVLGWFYR", "note": "[K84D;L86D]", "effect of a mutation on the interaction": "disrupting interaction"}
{"variants_of": "B2", "conditions": "with osbl1_rat Osbpl1a"}
{"variant": "MASASGAMAKHEQILVLDPPSDLKFKGPFTDVVTTNLKLQNPSDRKVCFKVKTTAPRRYCVRPNSGVIDPGSIVTVSVMLQPFDYDPNEKSKHDFDVQTIFAPPNISDMEAVWKEAKPDELMDSKLRCVFEMPNENDKLNDMEPSKAVPLNASKQDGPLPKPHSVSLNDTETRKLMEECKRLQGEMMKLSEENRHLRDEGLRLRKVAHSDKPGSTSAVSFRDNVTSPLPSLLVVIAAIFIGFFLGKFIL", "note": "[K94D;M96D]", "effect of a mutation on the interaction": "disrupting interaction"}
